Substrate in the series: O=C(O)c1ccccc1
In words: steady-state kinetics of carboxylic acid reduction. Particulars: His-tagged CAR, holo form after PPTase/CoA treatment; ATP, NADPH, Mg2+ as cofactors; assay pH and temperature for Km not in main text. Format: biochemical, Mycolicibacterium neoaurum.

B1: Mycobacterium CAR (Mycolicibacterium neoaurum VKM Ac-1815D) (protein)
chain: MFAENLDDQQRLADLYATDPEFAAAAPDPAIADAVAAPEMRLPEIIRTVLTGYAERPALGSRAVQLVTDEATGRTRAELLGHFETITYGQLWDRVRAVTNAWSDTVRPGDRVAILGFGSVDFTVIDIALTQLGAVSVPLQTSATAAALAPIVAETEPALIASDVNHLDDAVTLALESGVATVVVFDQNPAVDDDREAIAAATARLDGQTLATLDEVIAAGAERPDVAIPAQEGDPLSLLIYTSGSTGAPKGAMYPQGKVADIWRPAINSHWDARQGHVPAIVLSFMPMSHVMGRGILYASLASGGVVNFAARADLSTLLEDLALTRPTQLNFVPRVWDMLFQDYQSRAAHGGSEADILADMRTNLLGGRYVSALTGSAPISPELKAWVERLLDLHLVEGYGSTEAGAVFVDGQISRPPVLEYKLVDVPELGYHSTDVPHPRGELLIRSEQLFPGYYKRPEVTASVFDEDGFYRTGDIVAELGPDQVAYIDRRNNVLKLSQGEFVTVSKLEAVFNTAPLVHQIYIYGNSARPYLLAVVVPTDPAATKAEIADALKAAARKADLQSYELPRDFLVETQEFTTENGLLTGIKKLAWPKLKERYGAELEQLYTDLADGQAGELQALRATGADAPVLETVGRAAVALLGAASSDIAPDVHFTDLGGDSLSALTFGNLLADIFDVEVPVSVIVSPTADLASIAAHIETQRSGSGLRPSFASVHGKDATVARAADLTLDKFIDAETLAAAGDLAGPATNVRTVLLTGATGFLGRYLALEWLERMNLVDGKVIALVRARSDAEARARLDATFDTGDPKLVAHYRELADKHLEVLAGDKGEHDLGLDRQTWQRLADTVDLIVDPAALVNHVLPYNELFGPNALGTAELIRVALTTRIKPFVYVSTIGVGAGIEPGRFVEDADIREISATRVLDDSYANGYGASKWAGEVLLREAHEQFGLPVSVFRCDMILADTSYAGQLNLPDMFTRMMLSLVATGIAPKSFNQLDAQGNRQRSHYDGLPVEFIAEAISTLGADVTDGFETYHVMNPHDDGLGLDEFVDWLVDAGHPIRRIDDYQAWFEQFGATLRTLPDRQRQASLLPLLHNYTTPGQPVNGAMAPTDVFRTAVQEAKIGPDKDIPHVSRDVIVKYVTDLQLLGLL
notes: full-length gene in pET30b(+) (NdeI/XhoI), His-tagged, E. coli BL21(DE3), tag kept; monomer, theoretical 125 kDa; holo form made with Nocardia PPTase (ABI83656.1) and CoA
Turning to B1, the Km (usually the concentration of substrate that gives half-maximal velocity) worked out at 1750 ± 160 µM.

Values taken from article PMC4661009, “Synthesis of α,β-unsaturated esters via a chemo-enzymatic chain elongation approach by combining carboxylic acid reduction and Wittig reaction” (Beilstein Journal of Organic Chemistry, 2015).
